Reference: patent US20180371087A1 (published 2018)

T1: human LAG-3 (Lymphocyte Activation Gene-3), native or transduced, on the cell surface (UniProt P18627 23-525)
T1 chain: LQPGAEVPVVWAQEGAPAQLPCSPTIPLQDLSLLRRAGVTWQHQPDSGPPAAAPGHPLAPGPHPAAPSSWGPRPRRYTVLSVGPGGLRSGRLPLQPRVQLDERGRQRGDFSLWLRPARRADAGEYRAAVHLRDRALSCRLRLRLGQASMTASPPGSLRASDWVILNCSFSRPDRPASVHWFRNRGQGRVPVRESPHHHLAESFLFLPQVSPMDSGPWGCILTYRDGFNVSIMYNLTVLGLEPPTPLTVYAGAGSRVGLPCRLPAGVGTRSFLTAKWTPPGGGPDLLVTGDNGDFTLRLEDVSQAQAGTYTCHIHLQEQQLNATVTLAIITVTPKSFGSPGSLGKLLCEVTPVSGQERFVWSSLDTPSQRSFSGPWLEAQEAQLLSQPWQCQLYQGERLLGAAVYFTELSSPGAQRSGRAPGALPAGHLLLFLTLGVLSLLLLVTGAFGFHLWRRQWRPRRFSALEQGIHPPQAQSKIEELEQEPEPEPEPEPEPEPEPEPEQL


Columns and labels:
[1] = biological target: T1, human LAG-3 (Lymphocyte Activation …); assay: FACS binding; activated human CD4+ T cells
[2] = biological target: D1D4 construct; assay: SPR (Biacore)

EC50 [1] [nM]	Kd [2] [nM]	Binder
0.33		LAG3.7-G4P (antibody, V domains shown) VH: QVQLQQWGAGLLKPSETLSLTCAVYGGSFSDYYWNWIRQPPGKGLEWIGEINHGGGTNSNPSLKSRVTLSLDTSKNQFSLKLRSVTAADTAVYYCAFGYSDYEYNWFDPWGQGTLVTVSS VL: EIVLTQSPATLSLSPGERATLSCRASQSISSYLAWYQQKPGQAPRLLIYDASNRATGIPARFSGSGSGTDFTLTISSLEPEDFAVYYCQQRSNWPLTFGQGTNLEIK
0.19		LAG3.8 antibody variant of LAG3.1 (antibody, V domains shown) VH: QVQLQQWGAGLLKPSETLSLTCAVYGGSFSDYYWNWIRQPPGKGLEWIGEINHIGNTNSNPSLKSRVTLSLDTSKNQFSLKLRSVTAADTAVYYCAFGYSDYEYNWFDPWGQGTLVTVSS VL: EIVLTQSPATLSLSPGERATLSCRASQSISSYLAWYQQKPGQAPRLLIYDASNRATGIPARFSGSGSGTDFTLTISSLEPEDFAVYYCQQRSNWPLTFGQGTNLEIKR
	0.3	LAG3.8 (antibody, V domains shown) VH: QVQLQQWGAGLLKPSETLSLTCAVYGGSFSDYYWNWIRQPPGKGLEWIGEINHIGNTNSNPSLKSRVTLSLDTSKNQFSLKLRSVTAADTAVYYCAFGYSDYEYNWFDPWGQGTLVTVSS VL: EIVLTQSPATLSLSPGERATLSCRASQSISSYLAWYQQKPGQAPRLLIYDASNRATGIPARFSGSGSGTDFTLTISSLEPEDFAVYYCQQRSNWPLTFGQGTNLEIKR
